Assay [1] addresses T1, recombinant human interleukin-6 (IL6) (human, UniProt P05231 30-212). Nature of the assay: cell-based or functional assay.
The target of assay [2] is T1, recombinant human interleukin-6 (IL6). Briefly: ELISA, plate coated with recombinant human IL6 at 2 µg/ml, FB704 in four-fold serial dilutions from 2 µg/ml, HRP-labeled goat anti-human IgG, A450 [Cont'd) B]. How it is done:
(§1) Plates were coated with recombinant human IL3, IL4, IL5, IL6, IL11, IL17A, CNTF, OSM, IGF-1 (R&D Systems), IL2, FGF (Prospec), VEGF, TNF-α, EGF (Peprotech) at 2 μg/ml in 0.1M NaHCO₃ buffer at 4° C. overnight. After being washed by PBS, the wells were blocked with 1% (w/v) BSA in PBS at RT for 1 h. Purified anti-IL6 antibodies in four-fold serial dilutions at a starting concentration of 2 μg/ml were placed into the wells and incubated at RT for 1 h. The plate was washed in PBS containing 0.1% (w/v) Tween 20 and then probed with HRP-labeled goat anti-human IgG (KPL) diluted 1:10,000 in 1% BSA-PBS for 40 min at RT. The plate was again washed and a TMB substrate solution was added to develop color. Stop solution (1M H₂SO₄) was then added and the absorption at 450 nm quantitated using VERSA max (Molecular Devices).
(§2) An ELISA assay as described herein was performed to confirm the binding specificity of high-affinity anti-IL6 antibodies described herein. Briefly, plates were coated with different cytokines as indicated in FIG. 3A (IL6 family cytokines) and FIG. 3B (non-IL6 family cytokines) and the binding activities of the FB704 antibody clone (i.e. Ag1-4-6) to those cytokines were examined.

Another assay concerns the target T2, recombinant human CNTF (human, UniProt P26441 2-200).
T2 sequence (looked up): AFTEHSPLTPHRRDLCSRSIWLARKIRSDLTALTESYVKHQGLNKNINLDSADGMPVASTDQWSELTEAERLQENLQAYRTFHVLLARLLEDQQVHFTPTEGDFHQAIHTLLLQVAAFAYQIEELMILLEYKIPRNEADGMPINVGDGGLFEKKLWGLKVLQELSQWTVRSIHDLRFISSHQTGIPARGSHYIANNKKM
Nature of the assay: ELISA, plate coated with the cytokine at 2 µg/ml, FB704 in four-fold serial dilutions, HRP-labeled goat anti-human IgG, A450. The procedure: as §1, §2
(An ELISA detects its analyte on a solid surface through an enzyme-linked reagent.)

Another assay deals with T3, recombinant human IL11 (human, UniProt P20809 22-199).
T3 sequence (looked up): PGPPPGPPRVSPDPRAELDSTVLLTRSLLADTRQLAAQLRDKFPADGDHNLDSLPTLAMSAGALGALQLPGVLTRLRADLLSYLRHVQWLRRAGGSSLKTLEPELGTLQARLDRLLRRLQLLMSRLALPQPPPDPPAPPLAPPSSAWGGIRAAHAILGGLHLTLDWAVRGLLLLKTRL
The description is as above. How it is done:
as §1, §2

The next assay deals with T4, recombinant human IL17A (human, UniProt Q16552 20-155, limits assumed).
T4 sequence (looked up): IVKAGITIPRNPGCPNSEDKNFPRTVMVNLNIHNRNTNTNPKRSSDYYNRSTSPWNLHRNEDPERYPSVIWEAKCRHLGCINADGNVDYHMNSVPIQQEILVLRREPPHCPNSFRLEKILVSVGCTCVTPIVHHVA
Described as above. How it is done:
as §1, §2

For another assay, the target named is T5, recombinant human IL5 (human, UniProt P05113 20-134).
T5 sequence (looked up): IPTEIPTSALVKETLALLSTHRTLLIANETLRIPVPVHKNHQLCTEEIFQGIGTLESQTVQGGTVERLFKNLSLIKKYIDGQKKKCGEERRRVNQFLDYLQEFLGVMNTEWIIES
The description is as above. How it is done: as §1, §2

Another assay addresses T6, recombinant human IL3 (human, UniProt P08700 20-152).
T6 sequence (looked up): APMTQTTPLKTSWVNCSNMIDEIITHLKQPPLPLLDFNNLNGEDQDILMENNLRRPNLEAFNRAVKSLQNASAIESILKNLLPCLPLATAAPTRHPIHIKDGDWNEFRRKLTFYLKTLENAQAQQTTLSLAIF
The assay is described as above. How it is done: as §1, §2

The target in the next assay is T7, recombinant human IL4 (human, UniProt P05112 25-153).
T7 sequence (looked up): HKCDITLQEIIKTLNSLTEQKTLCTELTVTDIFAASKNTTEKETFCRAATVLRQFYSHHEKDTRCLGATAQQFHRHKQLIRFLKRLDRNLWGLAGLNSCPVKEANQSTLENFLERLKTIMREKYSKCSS
The description is as above. How it is done:
as §1, §2

The next assay deals with T8, recombinant human OSM (human, UniProt P13725 26-221, limits assumed).
T8 sequence (looked up): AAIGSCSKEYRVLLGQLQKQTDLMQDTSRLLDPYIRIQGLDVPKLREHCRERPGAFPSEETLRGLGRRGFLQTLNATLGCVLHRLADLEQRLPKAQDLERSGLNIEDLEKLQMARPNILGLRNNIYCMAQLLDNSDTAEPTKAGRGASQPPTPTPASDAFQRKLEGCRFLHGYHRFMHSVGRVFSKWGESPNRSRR
The assay is described as above. How it is done:
as §1, §2

The target of a further assay is recombinant human IL2 (human, UniProt P60568 21-153). The assay is described as above. How it is done: as §1, §2
In assay [3] the target is T1, recombinant human interleukin-6 (IL6). Nature of the assay: cell-based or functional assay. This is another data set of the same source.
For assay [4] the target is unchanged. Nature of the assay: SPR (BIAcore T200), IgG captured by anti-human IgG, IL6 injected at 0.4-25.6 nM. The procedure:
IgG binding affinity was measured by using human antibody capture kit (GE healthcare) in BIAcore T200 system (GE healthcare). The mouse anti-human IgG was immobilized on a CMS sensor chip via amine coupling. Approximately 700 RU of purified anti-IL6 IgG in HBS-EP+ buffer were captured onto the immobilized surface. The recombinant human IL6 (R&D Systems) at concentrations ranging from 25.6 nM to 0.4 nM in HBS-EP+ buffer was injected for 2 minutes using a flow rate of 30 μl/min. Dissociation of bound antigen in HBS⁻EP⁺ buffer flow was followed for 7 minutes. The surfaces IgG were regenerated after each cycle using regeneration solution (3M MgCl₂). The dissociation constant (KD) was calculated as kd/ka.
(In general: In SPR one partner is held on a chip, and binding of the other changes the refractive index at the surface.)

For another assay, the target named is recombinant human EGF (human, UniProt P01133 971-1023). Briefly: ELISA, plate coated with the cytokine at 2 µg/ml, FB704 in four-fold serial dilutions, HRP-labeled goat anti-human IgG, A450 [Cont'd) B]. How it is done:
as §1, §2

The target of a further assay is recombinant human VEGF (human, UniProt P15692-4 27-191, limits assumed). Described as above. How it is done: as §1, §2
Another assay addresses recombinant human IGF-1 (human, UniProt P05019 49-118). The assay is described as above. The procedure:
as §1, §2

In the next assay the target is recombinant human TNF-α (human, UniProt P01375 77-233). The assay is described as above. How it is done: as §1, §2
In assay [5] the target is T1, recombinant human interleukin-6 (IL6). Briefly: ELISA, plate coated with recombinant human IL6 at 2 µg/ml, FB704 in four-fold serial dilutions from 2 µg/ml, HRP-labeled goat anti-human IgG, A450. The procedure:
as §1, §2

The values that follow come from patent US20170362317A1 (FOUNTAIN BIOPHARMA, published 2017).

recombinant human TNF-α, sequence (P01375 77-233 limits assumed): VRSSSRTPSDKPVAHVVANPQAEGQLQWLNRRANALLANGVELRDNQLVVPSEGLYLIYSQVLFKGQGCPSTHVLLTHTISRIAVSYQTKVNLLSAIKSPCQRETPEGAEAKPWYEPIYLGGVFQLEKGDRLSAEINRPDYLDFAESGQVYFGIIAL
recombinant human VEGF, sequence (P15692 other isoform, or with tags, fused parts or gaps limits assumed): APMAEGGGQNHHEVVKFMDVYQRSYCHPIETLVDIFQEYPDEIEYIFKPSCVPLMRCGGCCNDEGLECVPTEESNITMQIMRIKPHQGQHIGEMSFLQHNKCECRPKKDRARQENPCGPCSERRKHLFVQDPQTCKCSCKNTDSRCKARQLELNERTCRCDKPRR
recombinant human IL2, sequence (P60568 21-153 limits assumed): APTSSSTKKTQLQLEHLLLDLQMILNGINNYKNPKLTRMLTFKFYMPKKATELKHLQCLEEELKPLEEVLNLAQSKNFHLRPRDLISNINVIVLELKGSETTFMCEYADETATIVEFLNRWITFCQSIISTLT
recombinant human EGF, sequence (P01133 971-1023 limits assumed): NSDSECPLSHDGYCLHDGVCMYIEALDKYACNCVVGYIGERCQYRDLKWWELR
recombinant human IGF-1, sequence (P05019 49-118 limits assumed): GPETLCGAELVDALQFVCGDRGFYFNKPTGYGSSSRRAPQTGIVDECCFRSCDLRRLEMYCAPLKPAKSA

B1: Ag1-4-6 (fully human anti-IL6 IgG1 antibody) (antibody, V domains shown)
VH: EVQLVESGPALVKPTQTLTLTCTFSGFSLSTGGMSVSWIRQPPGKALEWLARIDWDDDKFYTPSLKTRLTISRDTSKNQVVLIMTNMDPVDTATYYCARMHIDDSNGYYSDAFHIWGQGTMVTVSS
VL: EIVLTQSPATLSVSPGERVTLSCRDSQSVSSTSLAWYQQKSGQAPRLLIYDTSNRATGIPARFSGGGSGTDFTLTISSLEPEDFAVYYCSFVSRPYPRFTFGQGTKVEIK
notes: also called FB704
As usually defined, the EC50 (read off the curve) is the concentration needed to bring the measured effect to its halfway point. As a reminder, the Kd is a measure of binding affinity in units of concentration. In general, koff refers to the rate constant with which the complex falls apart. As a reminder, the kon is a measure of how fast the partners come together. On to B1, for which the “inhibition percentage of control of STAT3 phosphorylation in U266 cells, antibody at 0.05 µg/ml” value (“inhibition percentage of control … at 0.05 µg/ml” for short) in [1] stood at 0%. Also, the “inhibition percentage of control of STAT3 phosphorylation in U266 cells, antibody at 0.5 µg/ml” value (shortened to “inhibition percentage of control … at 0.5 µg/ml”) in assay [1] was found to be 60%. In addition, the “EC50 (read off the curve)” value in assay [2] and in assay [5] was ~0.01 µg/mL each time. The binding result with recombinant human CNTF, with recombinant human IL11, with recombinant human IL17A, with recombinant human IL5, with recombinant human IL3 and in the assay with recombinant human IL4 was “no binding (tested: 2 µg/ml)” each time. For the same molecule, the binding result in the assay with recombinant human OSM, with recombinant human IL2, in the assay with recombinant human EGF, in the assay with recombinant human VEGF, in the assay with recombinant human IGF-1 and with recombinant human TNF-α was “no binding (tested: 2 µg/ml)” each time. For the same molecule, the “IC50 of inhibition of IL6-dependent B9 cell proliferation (WST-1, 72 h)” value (shortened to “IC50 of inhibition … (WST-1, 72 h)”) in assay [3] stood at 0.0468 µg/mL. The dissociation constant Kd in [4] came to 0.75 nM. Also, the koff in assay [4] came to 0.00121 s⁻¹. In addition, the association rate constant (kon) in assay [4] came to 1.61e+06 M⁻¹ s⁻¹.

B2: 1-4-62 (fully human anti-IL6 IgG1 antibody) (antibody, V domains shown)
VH: EVQLVESGPALVKPTQTLTLTCTFSGFSLSTGGMSVSWIRQPPGKALEWLARIDWDDDKFYTPSLKTRLTISRDTSKNQVVLIMTNMDPVDTATYYCARMHIDDSNGYYSDAFHIWGQGTMVTVSS
VL: EIVLTQSPATLSVSPGERVTLSCRDSQSVSSTSLAWYQQKSGQAPRLLIYDTSNRATGIPARFSGGGSGTDFTLTISSLEPEDFAVYYCLVRNNWPPRFTFGQGTKVEIK
notes: also called parent clone
Turning to B2, in [1], the “inhibition percentage of control … at 0.05 µg/ml” value amounted to 0% and the “inhibition percentage of control … at 0.5 µg/ml” value came out at 8%. The “IC50 of inhibition … (WST-1, 72 h)” value in [3] was determined as 0.618 µg/mL. Besides, in assay [4], the Kd was 3.85 nM, the koff was determined as 0.00166 s⁻¹ and the kon was 438000 M⁻¹ s⁻¹.

B3: HAg1T-3-10 (fully human anti-IL6 IgG1 antibody) (antibody, V domains shown)
VH: EVQLVESGPALVKPTQTLTLTCTFSGFSLSTGGMSVSWIRQPPGKALEWLARIDWDDDKFYTPSLKTRLTISRDTSKNQVVLIMTNMDPVDTATYYCARMHIDDSNGYFSDAFHIWGQGTMVTVSS
VL: EIVLTQSPATLSVSPGERVTLSCRDSQSVSSTSLAWYQQKSGQAPRLLIYDTSNRATGIPARFSGGGSGTDFTLTISSLEPEDFAVYYCSFVSRPYPRFTFGQGTKVEIK
notes: also called HAgT1-3-10
Turning to B3, in assay [1], the “inhibition percentage of control … at 0.05 µg/ml” value came to 49% and the “inhibition percentage of control … at 0.5 µg/ml” value is 93%. For the same molecule, the “IC50 of inhibition … (WST-1, 72 h)” value in assay [3] amounted to 0.00456 µg/mL. In addition, in assay [4], the dissociation constant (Kd) turned out to be 0.27 nM, the off-rate constant (koff) came to 0.0006 s⁻¹ and the kon amounted to 2.24e+06 M⁻¹ s⁻¹.
